According to the RNAGym collection of RNA variant scans (doi:10.1073/pnas.2313332121):
Variants at the floor of the assay were thinned out.

B1: TPR 5TU (parent)
chain: GGAUCUUCUCGAUCUAACAAAAAAGACAAAUCUGCCACAAAGCUUGAGAGCAUCUUCGGAUGCAGAGGCGGCAGCCUUCGGUGGCGCGAUAGCGCCAACGUUCUCAACUAUGACACGCAAAACGCGUGCUCCGUUGAAUGGAGUUUAUCAUG

Variants of: B1
Assay: polymerase ribozyme fitness, log enrichment relative to wild type (log ratio); higher = more active; in vitro selection for triplet polymerase activity
Summary of the method: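 Frozen incubation at −7 °C formed the core of a single, triplicate in vitro selection round applied to PCR-built, transcribed mutant libraries of each subunit of a heterodimeric triplet polymerase ribozyme. Extended constructs were gel-excised, captured with streptavidin beads and amplified by RT-PCR, and input and output libraries were Illumina-sequenced with a filter of ≥10 input reads and ≥1 read per output. Fitness is the logarithm of genotype enrichment relative to wild-type enrichment, with inverse-variance-weighted replicate averaging, and the logarithm is base 2.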

Question: For GGAUCUUCUCGAUCUAACAACAAAGACAAAUCUGCCCCAAAGCUUGAGAGCAUCUUCGGAUGCAGAGGCGGCAGCCUUCGGUGACGCGAUAGCGCCAACGUUCUCAACUAUGACACGCAAAACGCGUGCUCCGUUGAAUGGAGUUUAUCAUG [A21C A37C G84A], which “polymerase ribozyme fitness (log ratio)” value is on record?
Answer: 0.0671

Question: For GGAUCUUCUCGAUCUAACAACAAAGACAAAUCUGCCACAAUGCUUGAGAGCAUCUUCGGAUGCAGAGGCGACAGCCUUCGGUGGCGCGAUAGCGCCAUCGUUCUCAACUAUGACACGCAAAACGCGUGCUCCGUUUAAUGGAGUUUUCCAUG [A21C A41U G71A A98U G136U A147U U148C], which “polymerase ribozyme fitness (log ratio)” value is on record?
Answer: ≤ -4.2

Question: For GGAUCUUCUCGAUCUAACAACAAUGACAAAUCUGCCACAAAGCUUGAGAGCAUGUUCGGAUGCAGAGGCGGCAGCCUUCGGUGGUGCGAUAGCGCCAACGUUCUCAACUAUGACACGCAACACGCGUGCUCCGUUGAAUGGAGUUUAUCAUG [A21C A24U C54G C85U A121C], which “polymerase ribozyme fitness (log ratio)” value is on record?
Answer: -0.525

Question: Which “polymerase ribozyme fitness (log ratio)” value does the source give for GGAUCUUCUCGAUCUAACAACAAAGCCAAAUCUGCCACAAAGCUUGAGAGCAUCUUCGGAUGCAGAGGCGCCAGCGUUCGGUGGCGAGAUAGCGCCAACGUUCUCAAUUAUGACACGCAAAACGCGUGCUCCGUUGAAUGGAGUUUAUCAUG [A21C A26C G71C C76G C87A C108U] here?
Answer: ≤ -4.2

Question: For GGAUCUUCUCGAUCUAACAACAAAGACUAUUCUGCCACAAAGCUUGGGAGCAUCUUCGGAUGCAGAGGCGGCAGCCUUCGGUGGCGCGAUAGCGCCAACGUUCUCAACUAUGACACGCAAAACGCGUGCUCCGUUGAAUGGAGUUUAUCAUG [A21C A28U A30U A47G], which “polymerase ribozyme fitness (log ratio)” value is on record?
Answer: ≤ -4.2

Question: Which “polymerase ribozyme fitness (log ratio)” value does the source give for GGAUCUUCUCGAUCUAACAACAAAGACAAAUCUGCCACAAAGCUUGAGAGCAUCUUCGGGUGCAGAGGCGGCUGCCUUCGGUGGCGCGAUAGGGCCAACGUUCUCAACUAUGACACGCAAAACGCGUGCUCCGUUGUAUGGAGUUUAUCAUG [A21C A60G A73U C93G A137U] here?
Answer: ≤ -4.2

Question: With GGAUCUUCUCGAUCUAACAACAAAGACAAAUCUGCCACAAUGCUUGAGAGCAUCUUCGGAUGCAGAGGCGGCAGCUUUCGGUGACGCGAUAGCGUCAACGUUCUCAACUAGGACACGCAAAACGCGUGCUCCGUUGAAUGGAGUUUAUCAUG [A21C A41U C76U G84A C95U U111G] as the variant, how does the “polymerase ribozyme fitness (log ratio)” value read?
Answer: -4.18

Question: Which “polymerase ribozyme fitness (log ratio)” value does the source give for GGAUCUUCUCGAUCUAACAACAAAGACAAAUCUGCCACAAAGCUUGAGAGCCUCUUCGGAUGCAGAGGCGGCAGCCUUCGGUGGUGCGAUAGCGCCAACGUUCUCAACUAUGACACCCAAAACGCGUGCUCCGUUGAAUGGAGUUUAUCAUG [A21C A52C C85U G117C] here?
Answer: -0.924

Question: With GGAUCUUCUCGAUCUAACAACAAAGUCAAAUCUGCCACAAAGCUUGAGAGCAUCUUCGGCUGCAGAGGCCGCAGCCUUCGAUGUCGCGAUAACGCCAACGUUCUCAACUAUGACUCGCAAAACGCGUGCUCCGUUGAAUGGAGUUUAUCAUG [A21C A26U A60C G70C G81A G84U G92A A115U] as the variant, how does the “polymerase ribozyme fitness (log ratio)” value read?
Answer: ≤ -4.2

Question: For GGAUCUUCUCGAUCUAACAACAAAGACAAAUCUGCCACAAAGCUUGAGAGCUUCUUCGGAUGCAGAGGCGGCAACCUUCGGUGGCGCGAUAGCCCCAACGUUCUCAACUAUGACACGCAAUACGCGUGCUCCGUUGAAUGGAGUUUAUCAUG [A21C A52U G74A G94C A121U], which “polymerase ribozyme fitness (log ratio)” value is on record?
Answer: ≤ -4.2

Question: With GGAUCUUCUCGAUCUAACAACAAAGACAAAUGUGCCACAAAGCUUGAAAGCAUCUUCGGAUGCAGAGGCGGCAGCCUUCGGUGGCGCGAUAGCGCCAACGUUCUCAACUAUGACACGCAAAGCGCUUGCUCCGUUGAAUGGAGUUUAUCAUG [A21C C32G G48A A122G G126U] as the variant, how does the “polymerase ribozyme fitness (log ratio)” value read?
Answer: ≤ -4.2

Question: For GGAUCUUCUCGAUCUAACAACAAAGACAACUCUGCCACAAUGCUUGAGAGCAUCUUCGGAUGCUGAGGCGGCAGCCUUCGGUGGCGCGAUAGCGCCAACGUUGUCAACUAUGACCCGCCAAACGCGUACUCCUUUGAAUGGAGUUUAUCAUG [A21C A30C A41U A64U C103G A115C A119C G128A G133U], which “polymerase ribozyme fitness (log ratio)” value is on record?
Answer: ≤ -4.2

Question: For GGAUCUUCUCGAUCUAACAACAAAGACAAAUGUGCCACAAAGCUUGAGAGCAUCUUCGGAUGCAGAGGCGGCAGCCUUCGGUGACGCGAUAGCGCCAACGUUCUCAACUAUGACACACAAAACGCGUGCUCCGUAGAAUGGAGUUUAUCAUG [A21C C32G G84A G117A U135A], which “polymerase ribozyme fitness (log ratio)” value is on record?
Answer: ≤ -4.2

Question: Which “polymerase ribozyme fitness (log ratio)” value does the source give for GGAUCUUCUCGAUCUAACAACAAAGACAACUCUGCCACAACGCUUGAGAGCAUCUUCGAAUGCAGAGGCGGCAGCCUUCGGUGGCGCGAUAGCGUCAACGUUCUCAACUAUGACACGCAAAACGCGUGCUCCGUUGAAUGGAGUUUAUCAUG [A21C A30C A41C G59A C95U] here?
Answer: ≤ -4.2

Question: With GGAUCUUCUCGAUCUAACAACAAUGACAAAUAUGCCACAAAGCUUGAGAGCAUCUUCGGAUGCAGAGGCGGCAGCCUUCAGUGGCGCGAUAGUGACAACGUUCUCAACUAUGACACGCAAAACGCGUGCUCCGUUGAAUGGAGUUUAUCAUG [A21C A24U C32A G80A C93U C95A] as the variant, how does the “polymerase ribozyme fitness (log ratio)” value read?
Answer: ≤ -4.2

Question: For GGAUCUUCUCGAUCUAACAACAAAGACAAAUCUGCCACAAAGCUUGAGAGCAUCUUCGGUUGCAGAGGCGGCAGCCUUCGGUGGCGCGAUAGCGCCAACGUUCUCAACUAUGACACGCAAAACGCGUGCUCCGUUGAAUGGAGUUUAUCAUG [A21C A60U], which “polymerase ribozyme fitness (log ratio)” value is on record?
Answer: -0.52

Question: Which “polymerase ribozyme fitness (log ratio)” value does the source give for GGAUCUUCUCGAUCUAACAACAAAGACAAAUCUGCCACAAAGCUUGAGAGCAUCUUCGGGUGCAGAGGCGGCAGCCUUCGGUGGCGCGAUAGCGCCAACGUUCUCAACUAUGACACGCAAAACGCGUGCUCCGUUGAAUGGAGUUUAUCAUG [A21C A60G] here?
Answer: 0.714

Question: For GGAUCUUCUCGAUCUAACAACAAAGACAAAUCUGCCACAAAGCUUGAGAGCAUCUUCGGAUGCAGAGGCGGCAGCCUUCGGUGGCGCGAUAGCGCCAACGUUCUCAACUAUGACACGCAAAACGCGUGCUCCGUUGGAUGGAGUUUAUCAUG [A21C A137G], which “polymerase ribozyme fitness (log ratio)” value is on record?
Answer: -0.909

Question: Which “polymerase ribozyme fitness (log ratio)” value does the source give for GGAUCUUCUCGAUCUAACAACAAAGACAAAUCUGCCACAAAGCUUGAGAGCAUCUUCGGAUGCAGAGGCGGCAGCCUUCGGUGGCGCGCUAGCGUCAACGUUCUCAACUAUGACACGCAAAACGCGUGCUCCGUUGAAUGGGGUUUAUCAUG [A21C A89C C95U A142G] here?
Answer: -3.16
